Source: PMC10929192 (2024)

Target: human PKM2 Ag (M2 splice isoform of pyruvate kinase), purified (human, UniProt P14618 1-531)
Assay: SPR

Chain of human PKM2 Ag (M2 splice isoform of pyruvate kinase), purified (P14618 whole entry, canonical isoform): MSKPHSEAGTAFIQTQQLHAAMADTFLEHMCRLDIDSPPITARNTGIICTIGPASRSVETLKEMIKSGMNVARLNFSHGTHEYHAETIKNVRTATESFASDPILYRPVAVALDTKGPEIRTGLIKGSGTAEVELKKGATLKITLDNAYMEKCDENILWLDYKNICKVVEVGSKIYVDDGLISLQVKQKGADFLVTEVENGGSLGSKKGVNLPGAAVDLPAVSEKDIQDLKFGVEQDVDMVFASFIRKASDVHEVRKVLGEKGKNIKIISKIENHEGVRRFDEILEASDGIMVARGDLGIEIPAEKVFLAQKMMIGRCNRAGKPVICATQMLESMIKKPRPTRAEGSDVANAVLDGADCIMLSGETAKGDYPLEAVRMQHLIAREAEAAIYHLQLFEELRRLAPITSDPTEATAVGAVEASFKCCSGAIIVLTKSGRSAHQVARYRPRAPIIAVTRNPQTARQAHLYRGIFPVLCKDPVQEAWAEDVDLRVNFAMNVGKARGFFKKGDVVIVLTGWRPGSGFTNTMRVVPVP

Row | Kd [nM] | Binder
1 | 0.228 | human full-length H103 Ab (anti-PKM2 antibody, IgG1) (antibody, V domains shown) VH: QVQLQESGPGLVRPSGTLSLICAVSGDSISSSIWWSWVRQSPGKGLEWIGYIYHNGNTYYNPSLESRVTISVDTSENQFSLKLSSVTAADTAVYYCARGYDSSGYYWTDDRYYFDYWGQGTLVTVSS VL: NFMLTQPHSVSESPGKTVTISCTGSSGSIASNYVQWYQQRPGSAPTTVIYEDNQRPPGVPDRFSGSIDSSSNSASLTISALETEDEADYYCQSYDSRNIDVVFGGGTKVTVL
2 | 0.632 | Na2S2O4-cleaved HAP103 Ab (act-HAP103) (antibody, V domains shown) VH: QVQLQESGPGLVRPSGTLSLICAVSGDSISSSIWWSWVRQSPGKGLEWIGYIYHNGNTYYNPSLESRVTISVDTSENQFSLKLSSVTAADTAVYYCARGYDSSGYYWTDDRYYFDYWGQGTLVTVSS VL: NFMLTQPHSVSESPGKTVTISCTGSSGSIASNYVQWYQQRPGSAPTTVIYEDNQRPPGVPDRFSGSIDSSSNSASLTISALETEDEADYYCQSYDSRNIDVVFGGGTKVTVL
